Laboratory results reported in patent US20140223606, “COMPOSITIONS AND METHODS COMPRISING SEQUENCES HAVING MEGANUCLEASE ACTIVITY” (PIONEER HI BRED INTERNATIONAL INC, published 2014).
Where a chain is given by its changes, count along the chain named.

Columns and labels:
Conditions in all cases: tags: NLS, 6xHis
[1] = target: T1, MHP14(07) (artificial); experiment: cell_activity; yeast 37 C; 28 C: 0.5
T1 chain: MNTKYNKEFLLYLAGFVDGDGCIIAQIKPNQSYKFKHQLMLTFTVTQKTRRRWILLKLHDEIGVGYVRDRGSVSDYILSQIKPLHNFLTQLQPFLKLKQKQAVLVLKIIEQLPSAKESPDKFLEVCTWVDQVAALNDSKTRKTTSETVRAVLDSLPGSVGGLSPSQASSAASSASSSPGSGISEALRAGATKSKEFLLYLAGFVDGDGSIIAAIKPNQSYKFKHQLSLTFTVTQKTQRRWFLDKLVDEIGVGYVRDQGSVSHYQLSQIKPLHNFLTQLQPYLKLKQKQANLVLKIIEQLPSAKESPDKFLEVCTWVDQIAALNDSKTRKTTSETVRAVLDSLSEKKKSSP
Method: (§1) A 3 mL culture of selective media (MP Biomedical) was inoculated with a single colony of the yeast screening strain and grown at 30° C. overnight. On the following day, a 50 ml YPD culture (MP Biomedical) was started with 2 ml of the overnight culture and grown at 30° C. overnight. On the following day, the cells were harvested by centrifugation at 4000 rpm. The cells were resuspended in 100 ml ice cold water and centrifuged again. The cells were then washed in 1.2 M sorbitol, followed by treatment with 2 ml of 10 mM Tris pH 8.0, 1 mM EDTA, 100 mM Lithium acetate, 10 mM DTT, 0.6M sorbitol for 30 minutes at 30° C. with shaking. The cells were recovered by centrifugation, washed in 40 ml 1.2M sorbitol and finally resuspended in 250 microliters of 1.2M sorbitol. 50 microliter aliquots were transferred to test tubes on ice. Up to 5 microliters of DNA (100-500 nanograms) were added. The suspension was transferred to a 0.2 cm electroporation cuvette, on ice. Electroporation was performed with a pulse charge at 1.5 kV, 200 ohms, 25 microF (pulse time of 5 milliseconds). 1 mL YPD media (MP Biomedical) was added and the cells were allowed to recover at 30° C. for 1-2 hr. The cells were centrifuged, resuspended in 100 uL 1M sorbitol and plated on selective media lacking leucine and containing 2% galactose. The resulting yeast colonies were incubated at various temperatures ranging from 22 to 37 degrees Celsius for 7-10 days. I-CreI and meganucleases derived from it have maximal activity at or above 37 degrees Celsius. Screening was performed at a range of temperatures from 22 to 37 degrees in order to observe increases in activity at lower temperatures which are relevant to certain biological systems (eg. plant cells, plant cell cultures, etc). At that time the red/white sectoring phenotype, indicative of meganuclease activity was observed. Colonies with increased white sectoring over the parental meganuclease (indicating colonies expressing a meganuclease with increased meganuclease activity), also referred to as “hits” and sometimes completely white, were isolated for further analysis. […]

[2] = target: T2, MHP14(L14-07) (artificial); experiment: cell_activity; yeast 37 C; 28 C: 0.5
T2 chain: T1 chain with Y12H, C22S, R50Q, I54F, L56D, H59V, V103N, V132T, Y281F
Method: as §1

[3] = target: T3, ZM6.3(G5) (artificial); experiment: cell_activity; yeast 37 C; 28 C: 0
T3 chain: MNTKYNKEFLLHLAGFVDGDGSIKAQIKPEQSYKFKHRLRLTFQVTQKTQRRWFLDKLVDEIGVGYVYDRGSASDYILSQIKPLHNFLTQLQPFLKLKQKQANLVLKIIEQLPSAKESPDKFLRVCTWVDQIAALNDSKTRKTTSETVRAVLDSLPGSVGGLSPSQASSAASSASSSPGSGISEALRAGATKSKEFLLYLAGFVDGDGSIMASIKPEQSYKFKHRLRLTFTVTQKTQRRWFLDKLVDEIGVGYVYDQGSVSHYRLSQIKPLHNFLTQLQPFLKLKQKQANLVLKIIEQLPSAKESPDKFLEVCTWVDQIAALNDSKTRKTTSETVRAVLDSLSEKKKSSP
Method: as §1

[4] = target: T4, ZM6.3 (artificial); experiment: cell_activity; yeast 37 C; 28 C: 0
T4 chain: T3 chain with H12Y, A73V, R124E
Method: as §1

[5] = target: T5, ZM6.3(3) (artificial); experiment: cell_activity; yeast 37 C; 28 C: 0
T5 chain: T3 chain with H12Y, A73V, E117G, R124E
Method: as §1

B1: MHP14 recognition site (dsDNA)
DNA 1: CAAACAGATTCACGTCAGATTT
DNA 2: AAATCTGACGTGAATCTGTTTG
B1 gave an activity [1] of 2.5 score 0-4 and an activity [2] of 4 score 0-4.

B2: ZM6.3 recognition site (dsDNA)
DNA 1: CAGGCTCTCGTAAATGCGCCTG
DNA 2: CAGGCGCATTTACGAGAGCCTG
B2 showed an activity [3] of 2 score 0-4, an activity [4] of 2 score 0-4 and an activity [5] of 2 score 0-4.
